Earlier results in US20240156960A1 (priority 2020, published 2024).

What was measured:
[1] = molecular target: SARS-CoV2 S; RBD (Severe acute respiratory syndrome coronavirus 2, UniProt P0DTC2); conditions: epitope S
[2] = system: SARS-CoV2
[3] = molecular target: SARS-CoV2 S (Severe acute respiratory syndrome coronavirus 2, UniProt P0DTC2); conditions: Protein + Epitope S, Unk
[4] = molecular target: SARS-CoV1 S (Severe acute respiratory syndrome coronavirus, UniProt P59594)
[5] = molecular target: NL63 S (Human coronavirus NL63, UniProt Q6Q1S2); conditions: Protein + Epitope S, Unk
[6] = molecular target: OC43 S (Human coronavirus OC43, UniProt P36334); conditions: Protein + Epitope S, Unk
Sequence of OC43 S (P36334 14-1353): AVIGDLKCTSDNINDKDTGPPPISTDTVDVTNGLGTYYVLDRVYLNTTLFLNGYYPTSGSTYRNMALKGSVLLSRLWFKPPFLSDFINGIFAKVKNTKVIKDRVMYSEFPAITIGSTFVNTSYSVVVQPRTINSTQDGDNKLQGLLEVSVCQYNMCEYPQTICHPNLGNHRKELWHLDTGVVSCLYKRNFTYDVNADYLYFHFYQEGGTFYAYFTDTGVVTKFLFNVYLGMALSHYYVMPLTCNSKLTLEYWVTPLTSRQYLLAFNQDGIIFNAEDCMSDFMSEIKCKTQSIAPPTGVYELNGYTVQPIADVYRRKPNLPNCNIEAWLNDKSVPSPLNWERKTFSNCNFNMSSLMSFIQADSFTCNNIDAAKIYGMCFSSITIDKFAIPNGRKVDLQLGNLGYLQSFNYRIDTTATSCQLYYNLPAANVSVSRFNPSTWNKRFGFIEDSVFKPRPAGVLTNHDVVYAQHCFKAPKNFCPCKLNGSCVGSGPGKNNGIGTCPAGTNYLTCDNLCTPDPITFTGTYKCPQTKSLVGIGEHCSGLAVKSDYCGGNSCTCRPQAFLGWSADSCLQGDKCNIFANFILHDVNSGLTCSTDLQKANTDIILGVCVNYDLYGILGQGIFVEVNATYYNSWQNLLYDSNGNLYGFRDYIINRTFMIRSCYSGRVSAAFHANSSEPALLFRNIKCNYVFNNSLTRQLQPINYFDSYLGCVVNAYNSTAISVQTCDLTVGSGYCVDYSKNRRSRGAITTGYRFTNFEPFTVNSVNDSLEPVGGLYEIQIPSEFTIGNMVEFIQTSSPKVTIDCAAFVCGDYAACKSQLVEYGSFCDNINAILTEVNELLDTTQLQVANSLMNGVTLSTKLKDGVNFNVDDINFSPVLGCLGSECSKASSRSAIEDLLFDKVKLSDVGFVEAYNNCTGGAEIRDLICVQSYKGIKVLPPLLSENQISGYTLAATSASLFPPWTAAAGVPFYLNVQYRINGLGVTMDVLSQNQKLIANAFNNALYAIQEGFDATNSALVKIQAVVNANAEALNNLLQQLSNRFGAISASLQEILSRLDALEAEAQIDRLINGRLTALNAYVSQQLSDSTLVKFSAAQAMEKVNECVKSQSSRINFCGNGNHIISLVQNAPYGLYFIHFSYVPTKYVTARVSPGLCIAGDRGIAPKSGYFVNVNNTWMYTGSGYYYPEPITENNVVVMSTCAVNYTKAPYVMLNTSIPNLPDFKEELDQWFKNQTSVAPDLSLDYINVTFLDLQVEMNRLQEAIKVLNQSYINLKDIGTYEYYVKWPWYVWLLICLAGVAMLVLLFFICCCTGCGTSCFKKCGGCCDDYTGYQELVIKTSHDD

Sequence of NL63 S (Q6Q1S2 19-1356): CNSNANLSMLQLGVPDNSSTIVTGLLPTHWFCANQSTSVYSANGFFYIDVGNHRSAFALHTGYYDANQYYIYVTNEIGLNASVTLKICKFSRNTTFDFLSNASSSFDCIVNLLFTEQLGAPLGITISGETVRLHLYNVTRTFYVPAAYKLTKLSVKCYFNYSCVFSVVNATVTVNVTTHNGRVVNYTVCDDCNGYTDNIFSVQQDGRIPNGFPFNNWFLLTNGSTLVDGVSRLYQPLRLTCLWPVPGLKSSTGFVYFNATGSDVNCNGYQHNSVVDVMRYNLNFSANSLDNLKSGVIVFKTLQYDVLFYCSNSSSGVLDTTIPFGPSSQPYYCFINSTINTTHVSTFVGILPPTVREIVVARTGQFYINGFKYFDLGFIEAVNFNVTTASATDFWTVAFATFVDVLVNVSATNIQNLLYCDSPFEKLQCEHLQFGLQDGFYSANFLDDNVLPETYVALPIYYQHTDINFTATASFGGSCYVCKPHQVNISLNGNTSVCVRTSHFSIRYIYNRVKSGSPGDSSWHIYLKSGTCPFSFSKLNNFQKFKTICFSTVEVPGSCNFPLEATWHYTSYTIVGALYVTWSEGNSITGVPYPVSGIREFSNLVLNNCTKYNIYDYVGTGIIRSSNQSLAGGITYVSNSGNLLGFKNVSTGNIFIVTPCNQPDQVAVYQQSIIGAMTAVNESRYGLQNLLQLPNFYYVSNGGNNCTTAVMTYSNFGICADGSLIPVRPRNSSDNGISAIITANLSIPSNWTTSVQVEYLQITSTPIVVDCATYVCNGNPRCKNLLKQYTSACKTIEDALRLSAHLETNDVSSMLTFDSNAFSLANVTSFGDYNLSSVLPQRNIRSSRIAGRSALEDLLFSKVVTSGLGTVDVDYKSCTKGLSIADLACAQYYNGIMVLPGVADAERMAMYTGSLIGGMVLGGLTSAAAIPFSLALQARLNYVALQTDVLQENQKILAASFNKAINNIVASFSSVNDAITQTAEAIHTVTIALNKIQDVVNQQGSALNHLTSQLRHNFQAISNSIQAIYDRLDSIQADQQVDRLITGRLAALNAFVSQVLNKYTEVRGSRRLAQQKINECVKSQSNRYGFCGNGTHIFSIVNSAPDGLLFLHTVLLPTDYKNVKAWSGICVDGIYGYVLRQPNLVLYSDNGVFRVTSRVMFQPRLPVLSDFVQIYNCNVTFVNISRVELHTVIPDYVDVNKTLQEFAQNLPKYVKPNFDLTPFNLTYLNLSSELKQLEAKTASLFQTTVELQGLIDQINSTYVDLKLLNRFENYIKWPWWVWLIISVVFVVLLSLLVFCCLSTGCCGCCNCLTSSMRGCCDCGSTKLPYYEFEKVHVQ

| Molecule | Binds to [1] | Binds to [2] | further results |
| --- | --- | --- | --- |
| C117 (antibody, listed as Homo sapiens, V domains shown) VH: QVQLVESGGGVVQPGRSLRLSCAASGFTFSTYAMHWVRQAPGEGLEWVAVISYDGSNTYYADSVKGRFTISRDNSKNTLYLQMNSLRAEDTAVYYCARDPIWFGELLSPPFVHFDYWGQGTLVTVSS VL: QSVLTQPPSVSAAPGQKVTISCSGSSSNIGNNLVSWYQQLPGTAPKLLIYENNKRPSGIPDRFSGSKSGTSATLGITGLQTGDEADYYCGAWDSSLSAGGVYVFGTGTKVTVL | SARS-CoV2 |  |  |
| C110 (antibody, listed as Homo sapiens, V domains shown) VH: QVQLQQSGAEVKKPGESLKISCKGSGYSFTSYWIGWVRQMPGKGLEWMGIIYPGDSDTRYSPSFQGQVTISADKSISTAYMQWSSLKASDTAMYYCARSFRDDPRIAVAGPADAFDIWGQGTMVTVSS VL: DIQMTQSPSTLSASVGDRVTITCRASQSISYWLAWYQQKPGKAPKLLIYQASSLESGVPSRFSGSESGTEFTLTISSLQPDDFATYYCQQYNSYPYTFGQGTKLEIK | SARS-CoV2 |  |  |
| C103 (antibody, listed as Homo sapiens, V domains shown) VH: QVQLQQWGAGLLKPSETLSLTCAVSGGSLSGFYWTWIRQPPGKGLEWIGETNHFGSTGYKPSLKSRVTISVDMSRNQFSLKVTSVTAADTAVYYCARKPLLYSDFSPGAFDIWGQGTMVTVSS VL: EIVLTQSPGTLSLSPGERATLSCRASQTVTANYLAWYQQKPGQAPRLLIYGASKRATGIPDRFSGSGSGTDFTLSISRLEPEDFAVYYCQQYTTTPRTFGGGTKVEIK | SARS-CoV2 |  |  |
| C017 (antibody, listed as Homo sapiens, V domains shown) VH: EVQLVESGGGLVQPGRSLRLSCAASGFTFDDYAMHWVRQAPGKGLEWVSGISWNSGTIGYADSVKGRFTISRDNAKNSLYLQMNSLRAEDTAFYYCAKAGVRGIAAAGPDLNFDHWGQGTLVTVSS VL: EIVLTQSPATLSLSPGERATLSCRASQSVSSYLAWYQQKPGQAPRLLIYDASNRATGIPARFSGSGSGTDFTLTISSLEPEDFAVYYCQQRITFGQGTRLEIK | SARS-CoV2 |  |  |
| 2M-4G4 (antibody, listed as Homo sapiens, V domains shown) VH: EVQLVESGAEVKKPGASVKVSCKASGYTFTSYYIHWVRQAPGQGLEWMGVINPSGGSTTYAQKFQGRVTVTRDTSTSTVYMELSSLRSEDTAVYYCARERGDSSGYYEIITTANRRFGMDVWGQGTTVTVSS VL: QSVLTQPASVSGSPGQSITISCTGTSSDVGMYNLVSWYQQHPGQAPKLMIYEGSKRPSGVSNRFSGSKSGNTASLTISGLQAEDEAYYYCCSYAVSSTWVFGGGTKLTVL |  | SARS-CoV2 |  |
| 2M-9H1 (antibody, listed as Homo sapiens, V domains shown) VH: EVQLLESGGGVVQPGRSLRLSCVASGFNFNNYGMHWVRQAPGKGLEWLAALSYEGSKEHYADSLKGRFTVSRDYSRATLHLHMNSLEPEDTAVYFCAKSSKIFYLGESREVDYWGRGTLVTVSS VL: DIVMTQSPSSLSAFVGDRVTITCRASRDIGGDLSWFQQKPGKAPERLIYAASSLESGVPSRFSGSGSATEFALTITSLQPEDFATYYCLQHKSYPLTFGGGTKVDIK |  | SARS-CoV2 |  |
| 2M-9F10 (antibody, listed as Homo sapiens, V domains shown) VH: EVQLLQSGGDLIQPGRSLRLSCAASGFSFEDYAMHWVRQAPGQGLEWVSGISYNGGSIDYVDSVKGRFTISRDNAKNALYLEMNSLRPEDTAFYYCAKDSVRREYTHARVPFDNWGLGTLVTVSS VL: AIRMTQSPSSLSASVGDRVTISCRATQNINYFLNWYQQKPGRAPKLLIYAASGLQSGVPSRFSGSGTGRVFTLTINSLQPDDFATYYCQQSFVSPRTFGQGTKVDIK |  | SARS-CoV2 |  |
| C120 (antibody, listed as Homo sapiens, V domains shown) VH: EVQLVESGGGLIQPGGSLRLSCAASGFTVSSNYMTWVRQAPGKGLEWVSLIYPGGSTYYADSVKGRFTISRDNSKNTLYLQMNSLRAEDTAVYYCAREGMGMAAAGTWGQGTLVTVSS VL: AIRMTQSPSSLSASVGDTVTITCQASQDISKYLNWYQQKPGKAPKLLIYDASNLETGVPSRFSGSGSGTDFTFTISSLQPEDIATYYCQQYDNLPQTFGGGTKVEIK | SARS-CoV2 |  |  |
| C101 (antibody, listed as Homo sapiens, V domains shown) VH: QVQLVESGGGLIQPGGSLRLSCAASGFIVSSNYMSWVRQAPGKGLEWVSVIYSGGSTFYTDSVKGRFTISRDNSKNTLYLQMNSLRAEDTAVYYCVRDYGDFYFDYWGQGTLVTVSS VL: EIVLTQSPGTLSLSPGERATLSCRASQSVSSSYLAWYQQKPGQAPRLLIYGASSRATGIPDRFSGGGSETDFTLTISRLEPEDCAVYYCQQYGSSPRTFGQGTKVEIK | SARS-CoV2 |  |  |
| C104 (antibody, listed as Homo sapiens, V domains shown) VH: QVQLQQWGAGLLKPSETLSLSCAVYGGSLSGYYWSWIRQPPGKGLEWIGEINHFGSTGYNPSLKSRVTISVDTSKSQFSVKLSSVTAADTAVYYCARKPLLYSNLSPGAFDIWGQGTMVTVSS VL: EIVLTQSPGTVSLSPGERATLSCWASQSVSASYLAWYQQKPGQAPRLLIYGASSRATGIPDRFSGSGSGTDFTLTISRLEPEDFAVYYCQQYGTTPRTFGGGTKVEIK | SARS-CoV2 |  |  |
| C115 (antibody, listed as Homo sapiens, V domains shown) VH: QVQLVESGGGLIKPGRSLRLSCTASGFTFGDYAMTWFRQAPGKGLEWVGFIRSKAYGGTTGYAASVKYRFTISRDDSKSIAYLQMDSLKTEDTAVYYCTRWDGWSQHDYWGQGTLVTVSS VL: DIVMTQSPLSLSVTPGEPASISCRSSQSLLHSNGNNYFDWYLQKPGQSPQLLIYLGSNRASGVPDRFSGSGSGTDFTLKISRVEAEDVGVYYCMQVLQIPYTFGQGTKLEIK | SARS-CoV2 |  |  |
| C122 (antibody, listed as Homo sapiens, V domains shown) VH: EVQLVESGGGLIQPGGSLRLSCAASGLTVSSNYMSWVRQAPGKGLEWVSVLYSGGSSFYADSVKGRFTISRDNSKNTLYLQMNSLRAEDTAVYYCARESGDTTMAFDYWGQGTLVTVSS VL: DIQLTQSPSFLSASVGDRVTITCRASQGISSYLAWYQQKPGKAPKLLIYAASTLQSGVPSRFSGSGSGTEFTLTISSLQPEDFATYYCQQLNSDSYTFGQGTKLEIK | SARS-CoV2 |  |  |
| C123 (antibody, listed as Homo sapiens, V domains shown) VH: EVQLVESGGGLIQPGGSLRLSCAASGVTVSRNYMSWVRQAPGKGLEWVSVIYSGGSTYYADSVKGRFTISRDNSKNTLYLQMNSLRAEDTAVYYCARDLSAAFDIWGQGTMVTVSS VL: DIQLTQSPSFLSASVGDRVTITCRASQGISSYLAWYQQKPGKAPKLLIYAASTLQSGVPSRFSGSGSGTEFTLTISSLQPEDFATYYCQQLNSYPPAFGQGTRLEIK | SARS-CoV2 |  |  |
| 2M-8H10 (antibody, listed as Homo sapiens, V domains shown) VH: QVQLVESGGGVVLPGRSLRLSCAASGFTFSTFAMHWVRQAPGKGLEWVAVISDEGSNKYYADSVKGRFTISRDNSRNTLYLQMNSLRAEDTAVYYCARAFYDSNWSVGSYFDSWGQGTPVTVSS VL: DIQMTQSPDSLAVSLGERATIKCKSSQSVLHSSNNKNYLAWYQQKAGQPPSLLLYWASTRESGVPDRFSGSGSGTDFTLTISSLQAEDVAVYYCQQYYNNQWTFGQGTKVDIK |  | SARS-CoV2 |  |
| C124 (antibody, listed as Homo sapiens, V domains shown) VH: EVQLVESGGGLVQPGGSLRLSCAASGFTFSGYSMNWVRQAPGKGPEWVSYISRSSSTIYYADSVKGRFTISRDNAKNSLYLQMNSLRDEDTAVYYCAREGARVGATYDTYYFDYWGQGTLVTVSS VL: EIVLTQSPATLSLSPGERATLSCRASQSFSSYLAWYQQKPGQAPRLLIYDASNRATGIPARFSGSGSGTDFTLTISSLEPEDFAVYYCQQRNNWPPEWTFGQGTKVEIK | SARS-CoV2 |  |  |
| 2M-7E9 (antibody, listed as Homo sapiens, V domains shown) VH: EVQLVESGAEVKKPGSSVKVSCKASGGTFSSFAISWVRQAPGQGLEWMGGIIPIFDTTNYAQKFQGRVTITADESTRTAYMELSSLRSEDTAVYYCARIPGWDRGTDRNWNDDWGQGTTVTVSS VL: DIVMTQSPATLSLSPGERATLSCRASQSVSNFLAWYQQKPGQAPRLLIYDASNRATGIPARFSGSGSGTDFTLTISSLEPEDFAVYYCQQRSNWPPAFTFGPGTKVEIK |  | SARS-CoV2 |  |
| 2M-8E7 (antibody, listed as Homo sapiens, V domains shown) VH: EVQLVESGAEVKKPGSSVKVSCKASGGTFSSYAISWVRQAPGQGLEWMGGIIPIFGTANYAQKFQGRVTVTADESTSTAYMELSSLRSEDTAVYYCARTYSFDSSGYYYDYWGQGTMVTVSS VL: EIVLTQSPATLSLSPGERATLSCRASQSVSSYLAWYQQKPGQAPRLLIYDASNRATGIPARFSGSGSGTDFTLTISSLEPEDFAVYYCQQRSNWPPKITFGQGTRLEIK |  | SARS-CoV2 |  |
| mAb-85 (antibody, listed as Homo sapiens, V domains shown) VH: QVQLQESGPGLVKPSGTLSLTCAVSGGSITSRDWWSWVRQPPGKGLEWIGEVYHSGSTSYNPSLKSRVTISVDKSKNEFSLKLSSVTAADTAVYYCARAGNIVVMPAAQYYFDYWGQGTLVTVSS VL: EIVLTQSPSSLSASVGDRVTITCRASQDISNYLAWYQQKPGKAPKLLIYAASTLQSGVPLRFSGSGSGTDFTLTISSLQPEDFATYYCLQLHNYSSFGGGTKVDIK |  |  | Binds to [3]: SARS-CoV2; Doesn't Bind to [4]: CoV1; Doesn't Bind to [5]: NL63,; Doesn't Bind to [6]: OC43, |
| C105 (antibody, listed as Homo sapiens, V domains shown) VH: QVQLVESGGGLIQPGGSLRLSCAASGFTVSSNYMSWVRQAPGKGLEWVSVIYSGGSTYYADSVKGRFTISRDNSKNTLYLQMNSLRAEDTAVYYCARGEGWELPYDYWGQGTLVTVSS VL: QSALTQPPSASGSPGQSVTISCTGTSSDVGGYKYVSWYQQHPGKAPKLMIYEVSKRPSGVPDRFSGSKSGNTASLTVSGLQAEDEADYYCSSYEGSNNFVVFGGGTKLTVL | SARS-CoV2 |  |  |
| C108 (antibody, listed as Homo sapiens, V domains shown) VH: QVQLQESGPGLVKPSGTLSLTCAVSGGSISSTNWWSWVRQPPGKGLEWIGEIYHTGSTNYNPSLKSRVTISVDKSKNQFSLKLSSVTAADTAVYYCVRDGGRPGDAFDIWGQGTMVTVSS VL: QSALTQPASVSGSPGQSITISCTGTSSDVGGYNYVSWYQQHPGKAPKLMIYDVSNRPSGVSNRFSGSKSGNTASLTISGLQAEDEADYYCNSYTSSSTRVFGTGTKVTVL | SARS-CoV2 |  |  |
